From the DeepSol protein solubility set come the findings set out here.

A short description of the series: soluble on expression in E. coli; label from the status in PepcDB or PDB records.
For “MGSDKIHHHHHHMNQTLRIGSGAAWWGDRVEPAALNAEHGALDYLCFETMAEATVSAAQVRLRRDSSFAGYDTYLDERMRAVLPACMRHGTRIISNQGWINPTGAAERIVQLLRDAGQHGVRVAAVCGSLITDRVLELADRVLENGAPVRSLAPDLISAEVYLGAEPIVAALRAGAQIVVTGRVADPSIFLAPMMHGFGWDPLDHERVGAGSAIGHLLECGAQVTGGYFCDPGFKELPEPWNFAFPIAEVQSDGTAVITKVAGSGGGVTLQTVKEQMLYEVHDPANYLTPDVVVDFTQARLEQIGPDRVRVTGLTGKPRTPTLKVTIGCAEGFIGEDMFFYAGPGALRRAQWARKILQERFRIVQLQAEELRIDFLGLNAIHGAATPADAVEPYEVAVRVAARTKTRAEAAKVGREVDGMAVSGIAHTGKRVPHQERWREVIGLWSALVPREAVPAHICYFES”, the “soluble on expression in E. coli” value is “not soluble”.
The entry for “MGSDKIHHHHHHMTDTISYQYAAPSVLQRSSDQDELFLAKYSEIEKKEAPCFFWGKLTQPYMTARCLIALSNVVQSSFNLTPAQLSMLKDPIVTAGNERLRFEGFSNCAGVYARVDVLPDGHDGEFLENGTTNVDFNAGMISALGSISKQEKVVMSVGPKEVGLYNKGEKVIERKVPLPVKWIKGLTTVQIYQSVAERMYSFNRIQTLQLFQTLPKGTVKCDYYLVMRGQKPAFSPVKSLNAVCIGGVHRLRLLEPLLPFADELRVFVHPTMQSTIWQLYFGPVRFSLSLSRECWRGFSGEGAALDALLEDVPEKWIAAMDKYSYANQQFNPTLFAIEEHIDLDKVDSLSARLAAMGLLGFDLDDNSFFYRRLPFKTERILSLNPRMIAAEKLLEEEKVEIISNDGNRTEARVAGSGGVRHTVILDRESEKERCTCTWFSGNQGERGACKHILAVKKRVQWKN” is “not soluble”; for “MSEESNDDKKPTTKFELERETELRFEVEASQSVQLELLAGMAEIFGTELTRNKKFTFDAGAKVAVFTWHGCSLQLSGRTEVAYVSKDTPMLLYLNTHTALEQMRRQAEKEEERGPRVMVVGPTDVGKSTVCRLLLNYAVRLGRRPTYVELDVGQGSVSIPGTMGALYIERPADVEEGFSIQAPLVYHFGSTTPGTNIKLYNKITSRLADVFNQRCEVNRRASVSGCVINTCGWVKGYGYQALVHAASAFEVDVVVVLDQERLYNELKRDLPHFVRTVLLPKSGGVVERSKDFRRECRDERIREYFYGFRGCFYPHAFNVKFSDVKIYKVGAPTIPDSCLPLGMSQEDNQLKLVPVTPGRDMVHHLLSVSTAEGTEENLSETSVAGFIVVTSVDVEHQVFTVLSPAPRPLPKNFLLIMDIRFMDLK” it is “soluble”; for “MDCIRVTTIGYYHRDGDMRVTPGLLPKILNRECLKPLREDFFNLNIEVPDSGQGENNMVSFLDYISQTKCLEDAQPDFVTNKQILTALTGNKPFTIHAIHLKGTIFSFKSGEVRYQDTKNFGGAFEHFCTRTRNDEQLETDDTVRKAVFKAEIPRGNTQFYRVLYSGQIDAIDNEVDRKHYELKIMSQGLNEYFWKEKSCKFYWQSVFGNAPVLIIGSRSGQYSTQTTNNYPPYSLYKVEELKRDRIPSMAARCRKIPGRFGPAPPWKISEGEDNALYFLDLVKDNVINDGDCFSFTRTDENPDWDVKRDEESAAQFRDVVLQYLDR” it is “not soluble”.
In the case of “MSLVKDIYSESIQIQIAASSMLSENITNATQMVMQCLLGGNKVIACGVSRSYANAQFLVSNLLNRYDLVRPSFPSVLLSLESAVGSSLVFEQPPEELYCHQFNASAKSGDLLIAFAPLGTEKIVLNIISHAVSKEVNVIVLTGSNNDAIQGILADKDLEISIPATKESRILENHLFVINALCELVDQTLFPSAEGGSHHHHHH”, the “soluble on expression in E. coli” value is on record as “soluble”.
“MSLQPILQLLEKDEQREALHYFIEKLPQLKEATESMEEKITFIQHVMNDKQTLESLFAEWEAKAAPFRLTSEHFEAIATLIQLLPTLVQWLQKAEEFVSFVTSVMNDRESMAYLTKGIKDIVPIGKGLDILKETNERFACERDSTTVSLLRIYRLLKHPIVQDGVKYIETLLDVASKHK”: the “soluble on expression in E. coli” value is “not soluble”.
The value for “MSVGQTLAEKILSHKVGRPVRAGELVVVEVDQVMVVDSIAGSFFKRLEYLEATPRYPERVSIVIDHVAPAANLEVAKAQKEIREWGKRHGIRVFDVGRGVCHQVLIEEGLAQPGWVVVGSDSHSTTYGAVGAFGTGMGATDIALAAASGRTWLRVPESVKVVFRGRLPKGVTAKDAALEMVRLLTAEGATYMAVEIHLLDGAEALTRGERMTLANLTVEAGAKAGLVVPSGEILEMYRVPDWLYPDPDARYAKEVEIDLSALTPRVSVPFYVDNVHEVAQVKGKRVDQVFIGTCTNGRIEDLRAAAEVLKGRKVAPWVRLLVVPASSQVLEEAARDGTLLTLLEAGATIGTPGCGPCMGRHMGVLAPGEVCVSTSNRNFRGRMGAPDAEIYLASPRVAAASAVAGYLTTPEELEEEEVHA” was “soluble”.
